# Assay results from paper PMC2195822 (The Journal of Experimental Medicine, 2000).
# Where two headings read alike, the source gives them in different places. No end group written: not given here.
# What was measured:
# [1] = Diffusion–sedimentation equilibrium; type: physicochemical; details: 150 μM peptide
# AUC [2] = target: the molecule itself; experiment: AUC
# AUC [3] = target: the molecule itself; experiment: AUC; remark: listed apart in the source
# AUC [4] = target: the molecule itself; experiment: AUC; remark: listed apart in the source
# AUC [5] = target: the molecule itself; experiment: AUC; remark: listed apart in the source
Molecule,stoichiometry N (AUC [3]),stoichiometry N (AUC [4]),further results
SSTKKTQLQLQ [p5–15],–,–,quaternary structure at 150 μM [1]: dimers
TQLQLEHLLLDLQMILNGINN [IL-2 peptide p10–30],–,–,stoichiometry N (AUC [2]): 4
APTSSSTKKTQLQLEHLLLDLQMILNGINNC [IL-2 peptide p1–30Cys],8,4,–
"soluble IL-2Rβ 31–230 (residues 31–230 of the IL-2Rβ chain, most of the extracellular part) (domain or fragment, human, UniProt P14784 31-230, looked up) TSQFTCFYNSRANISCVWSQDGALQDTSCQVHAWPDRRRWNQTCELLPVSQASWACNLILGAPDSQKLTTVDIVTLRVLCREGVRWRVMAIQDFKPFENLRLMAPISLQVVHVETHRCNISWEISQASHYFERHLEFEARTLSPGHTWEEAPLLTLKQKQEWICLETLTPDTQYEFQVRVKPLQGEFTTWSPWSQPLAFR",–,–,Kd (AUC [5]): 3000 nM; stoichiometry N (AUC [5]): 2
"APTSSSTKKTQLQLEHLLLDLQMILNGINN-NH2 [peptide p1–30 (amino acids 1–30 of human IL-2, covering the entire α helix A)]",8,–,–
APTSSSTKKTQLQLEHLLLDLQMILNGINNC(fluorescein)-NH2 [p1–30Cys labeled on the terminal Cys31 with a fluorescein group (p1–30Cys-FLC)],8,4,–
